Laboratory results published in patent US20100209346A1.

How the values were obtained:
Assay in all cases: dot blot; antigen dilution series 100-0.01 pmol on nitrocellulose
[1] = target: Aβ(1-42) fibril preparation of example 27 (human)
[2] = target: Aβ(1-42) oligomer B preparation of example 6b (oligomers of human amyloid β(1-42) protein with apparent molecular weights of 38 kDa and 48 kDa) (human)
[3] = target: HFIP-treated Aβ(1-42) monomer of example 1a (human)

Substance: monoclonal antibody 6E10 (Signet)
- detection limit (minimum amount of antigen visible) [1]: 1 pmol
- detection limit (minimum amount of antigen visible) [2]: 0.1 pmol
- detection limit (minimum amount of antigen visible) [3]: 0.1 pmol
